Test results taken from US20220242906A1.
Blank lines part the entries; values can stand above or below the binder they belong to.

Target: elongation initiation factor 4E (eIF4E), P06730
Test: SPR (Biacore T100), eIF4E immobilised on CM5 chip, peptide as analyte
Conditions: remark: other sources report otherwise

elongation initiation factor 4E (eIF4E), P06730, sequence (P06730 2-217 limits assumed): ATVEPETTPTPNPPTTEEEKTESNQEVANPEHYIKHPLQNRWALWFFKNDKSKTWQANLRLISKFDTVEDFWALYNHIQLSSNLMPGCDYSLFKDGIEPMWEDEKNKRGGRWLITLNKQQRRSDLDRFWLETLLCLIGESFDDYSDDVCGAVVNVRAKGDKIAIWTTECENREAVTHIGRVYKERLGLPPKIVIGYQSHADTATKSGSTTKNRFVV

Kd: 32 µM
B1: EE-2C (peptide)
peptide: ACEMAFFQDCG
HELM: PEPTIDE1{A.C.E.M.A.F.F.Q.D.C.G.[am]}$PEPTIDE1,PEPTIDE1,2:R3-10:R3$$$V2.0
SMILES: CSCC[C@@H]1NC(=O)[C@H](CCC(=O)O)NC(=O)[C@@H](NC(=O)[C@H](C)N)CSSC[C@@H](C(=O)NCC(N)=O)NC(=O)[C@H](CC(=O)O)NC(=O)[C@H](CCC(N)=O)NC(=O)[C@H](Cc2ccccc2)NC(=O)[C@H](Cc2ccccc2)NC(=O)[C@H](C)NC1=O

Kd: 11 µM
B2: EE-2A (peptide)
peptide: ACAMGFFQDCG
HELM: PEPTIDE1{A.C.A.M.G.F.F.Q.D.C.G.[am]}$PEPTIDE1,PEPTIDE1,2:R3-10:R3$$$V2.0
SMILES: CSCC[C@@H]1NC(=O)[C@H](C)NC(=O)[C@@H](NC(=O)[C@H](C)N)CSSC[C@@H](C(=O)NCC(N)=O)NC(=O)[C@H](CC(=O)O)NC(=O)[C@H](CCC(N)=O)NC(=O)[C@H](Cc2ccccc2)NC(=O)[C@H](Cc2ccccc2)NC(=O)CNC1=O
